According to publication PMC9482650, “Quantitative fragmentomics allow affinity mapping of interactomes” (Nature Communications, 2022):
Each block holds one binder with its values, some of them ahead of it.

What was measured:
Assay in all cases: holdup assay
Set-up in all cases: key: below the threshold = too weak to quantify, mostly under pKd 3.1 to 4
FRMPD2_3, Q68DX3 = target: FRMPD2_3, Q68DX3
HTRA3, P83110 = target: T1, HTRA3, P83110
T1 sequence (P83110 354-453, limits assumed, looked up): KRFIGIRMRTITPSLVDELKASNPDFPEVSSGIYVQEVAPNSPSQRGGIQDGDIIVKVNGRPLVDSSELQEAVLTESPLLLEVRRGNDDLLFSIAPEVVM

DLG4_1, P78352 = target: DLG4_1, P78352
DLG4_1, P78352, sequence (P78352 62-152): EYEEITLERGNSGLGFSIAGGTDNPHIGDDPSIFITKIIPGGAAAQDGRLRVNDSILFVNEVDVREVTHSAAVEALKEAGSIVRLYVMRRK

PDZD2_2, O15018 = target: T2, PDZD2_2, O15018
T2 sequence (O15018 329-429, limits assumed, looked up): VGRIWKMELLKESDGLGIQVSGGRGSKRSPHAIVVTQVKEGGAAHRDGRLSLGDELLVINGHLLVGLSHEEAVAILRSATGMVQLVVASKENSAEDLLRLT

TJP1_2, Q07157 = target: TJP1_2, Q07157
TJP1_2, Q07157, sequence (Q07157 181-274): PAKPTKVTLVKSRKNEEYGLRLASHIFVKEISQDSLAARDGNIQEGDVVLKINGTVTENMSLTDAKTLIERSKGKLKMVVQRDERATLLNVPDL

NHERF3_4, Q5T2W1 = target: T3, NHERF3_4, Q5T2W1
T3 sequence (Q5T2W1 373-468, limits assumed, looked up): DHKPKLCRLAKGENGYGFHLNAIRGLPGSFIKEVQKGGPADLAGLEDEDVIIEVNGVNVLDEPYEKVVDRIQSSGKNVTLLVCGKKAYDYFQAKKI

RHPN1, Q8TCX5 = target: T4, RHPN1, Q8TCX5
T4 sequence (Q8TCX5 508-602, limits assumed, looked up): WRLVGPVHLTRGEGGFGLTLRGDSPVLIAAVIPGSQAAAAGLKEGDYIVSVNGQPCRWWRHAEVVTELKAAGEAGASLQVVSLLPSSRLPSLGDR

FRMPD2_2, Q68DX3 = target: FRMPD2_2, Q68DX3
FRMPD2_2, Q68DX3, sequence (Q68DX3 944-1038): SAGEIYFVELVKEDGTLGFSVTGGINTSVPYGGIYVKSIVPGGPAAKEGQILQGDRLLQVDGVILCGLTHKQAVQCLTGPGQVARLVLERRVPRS

GRID2IP_1, A4D2P6 = target: GRID2IP_1, A4D2P6
GRID2IP_1, A4D2P6, sequence (A4D2P6 1-87): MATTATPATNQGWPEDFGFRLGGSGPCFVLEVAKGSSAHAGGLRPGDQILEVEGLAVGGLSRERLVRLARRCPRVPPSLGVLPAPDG

GORASP1, Q9BQQ3 = target: GORASP1, Q9BQQ3
GORASP1, Q9BQQ3, sequence (Q9BQQ3 1-208): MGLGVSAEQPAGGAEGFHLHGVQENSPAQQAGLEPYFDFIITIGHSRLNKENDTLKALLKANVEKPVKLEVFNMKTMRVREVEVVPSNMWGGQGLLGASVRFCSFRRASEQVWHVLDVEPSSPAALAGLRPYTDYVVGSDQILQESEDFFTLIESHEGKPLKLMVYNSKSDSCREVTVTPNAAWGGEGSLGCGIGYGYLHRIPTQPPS

LAP2, Q96RT1 = target: LAP2, Q96RT1
LAP2, Q96RT1, sequence (Q96RT1 other isoform, or with tags, fused parts or gaps): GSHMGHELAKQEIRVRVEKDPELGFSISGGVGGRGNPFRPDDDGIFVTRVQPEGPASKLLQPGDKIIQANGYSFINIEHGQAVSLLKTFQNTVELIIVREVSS

Inadl_8, Q8NI35 = target: Inadl_8, Q8NI35
Inadl_8, Q8NI35, sequence (Q8NI35 1425-1530): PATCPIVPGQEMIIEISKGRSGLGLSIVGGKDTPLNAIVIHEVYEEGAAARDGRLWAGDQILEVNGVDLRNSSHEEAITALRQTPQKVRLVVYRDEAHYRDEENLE

MAGI3_2, Q5TCQ9 = target: MAGI3_2, Q5TCQ9
MAGI3_2, Q5TCQ9, sequence (Q5TCQ9 398-503): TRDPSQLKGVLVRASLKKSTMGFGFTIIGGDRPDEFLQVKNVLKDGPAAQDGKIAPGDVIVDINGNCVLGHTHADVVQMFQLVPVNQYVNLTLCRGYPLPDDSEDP

GRIP1_7, Q9Y3R0 = target: T5, GRIP1_7, Q9Y3R0
T5 sequence (Q9Y3R0 999-1096, limits assumed, looked up): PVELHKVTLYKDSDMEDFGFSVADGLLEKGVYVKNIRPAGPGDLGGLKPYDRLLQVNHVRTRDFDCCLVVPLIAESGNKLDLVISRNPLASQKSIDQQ

CASK, O14936 = target: CASK, O14936
CASK, O14936, sequence (O14936 487-570): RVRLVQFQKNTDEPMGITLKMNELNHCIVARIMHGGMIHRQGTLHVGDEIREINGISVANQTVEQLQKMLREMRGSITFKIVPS

MAGI1_1, Q96QZ7 = target: MAGI1_1, Q96QZ7
MAGI1_1, Q96QZ7, sequence (Q96QZ7 1-106): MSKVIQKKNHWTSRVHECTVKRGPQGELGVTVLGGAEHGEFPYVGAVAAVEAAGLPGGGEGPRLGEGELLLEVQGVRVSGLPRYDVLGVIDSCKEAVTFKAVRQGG

FRMPD2_1, Q68DX3 = target: FRMPD2_1, Q68DX3
FRMPD2_1, Q68DX3, sequence (Q68DX3 770-861): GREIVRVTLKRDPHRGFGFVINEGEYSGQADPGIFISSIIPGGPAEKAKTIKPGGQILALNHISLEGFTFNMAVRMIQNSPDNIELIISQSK

DLG3_2, Q92796 = target: T6, DLG3_2, Q92796
T6 sequence (Q92796 221-321, limits assumed, looked up): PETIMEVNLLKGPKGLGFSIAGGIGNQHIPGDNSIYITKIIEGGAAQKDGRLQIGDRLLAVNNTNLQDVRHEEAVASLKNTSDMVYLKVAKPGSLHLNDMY

Inadl_5, Q8NI35 = target: Inadl_5, Q8NI35
Inadl_5, Q8NI35, sequence (Q8NI35 673-780): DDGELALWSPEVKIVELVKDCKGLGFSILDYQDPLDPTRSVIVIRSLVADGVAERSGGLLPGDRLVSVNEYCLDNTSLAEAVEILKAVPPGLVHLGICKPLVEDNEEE

GORASP2, Q9H8Y8 = target: GORASP2, Q9H8Y8
NHERF3_3, Q5T2W1 = target: T7, NHERF3_3, Q5T2W1
T7 sequence (Q5T2W1 238-333, limits assumed, looked up): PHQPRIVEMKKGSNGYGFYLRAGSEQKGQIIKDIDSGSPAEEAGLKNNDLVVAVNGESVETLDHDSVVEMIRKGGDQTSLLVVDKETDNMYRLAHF

SCRIB_2, Q14160 = target: SCRIB_2, Q14160
SCRIB_2, Q14160, sequence (Q14160 857-960): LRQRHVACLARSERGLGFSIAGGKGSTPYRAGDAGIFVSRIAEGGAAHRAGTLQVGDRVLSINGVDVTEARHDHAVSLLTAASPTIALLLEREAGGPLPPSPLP

SNTB1, Q13884 = target: T8, SNTB1, Q13884
T8 sequence (Q13884 107-205, limits assumed, looked up): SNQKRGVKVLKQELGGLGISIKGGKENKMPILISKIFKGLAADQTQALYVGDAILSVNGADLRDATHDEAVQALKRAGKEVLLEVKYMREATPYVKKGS

MAGI2_6, Q86UL8 = target: MAGI2_6, Q86UL8
MAGI2_6, Q86UL8, sequence (Q86UL8 1141-1229): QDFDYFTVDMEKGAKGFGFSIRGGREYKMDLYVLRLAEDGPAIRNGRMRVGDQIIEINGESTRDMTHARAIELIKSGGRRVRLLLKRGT

MPDZ_5, O75970 = target: T9, MPDZ_5, O75970
T9 sequence (O75970 695-796, limits assumed, looked up): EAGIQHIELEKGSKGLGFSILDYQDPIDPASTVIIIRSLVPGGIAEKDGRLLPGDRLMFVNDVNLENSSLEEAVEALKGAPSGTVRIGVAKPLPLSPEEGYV

DLG3_1, Q92796 = target: T10, DLG3_1, Q92796
T10 sequence (Q92796 125-227, limits assumed, looked up): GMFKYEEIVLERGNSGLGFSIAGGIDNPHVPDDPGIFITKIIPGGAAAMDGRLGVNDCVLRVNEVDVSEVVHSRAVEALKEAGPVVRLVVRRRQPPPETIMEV

LIN7A, O14910 = target: T11, LIN7A, O14910
T11 sequence (O14910 103-200, limits assumed, looked up): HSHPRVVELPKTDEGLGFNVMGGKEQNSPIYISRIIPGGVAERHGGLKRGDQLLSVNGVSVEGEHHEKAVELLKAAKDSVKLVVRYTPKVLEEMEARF

[1] = plain residues with an end cap or a label only (N-terminal biotin on a linker: ado-ado)
[2] = plain residues with an end cap or a label only (N-terminal biotin on a linker: ahx)

FRMPD2_3, Q68DX3, sequence (Q68DX3 1073-1166): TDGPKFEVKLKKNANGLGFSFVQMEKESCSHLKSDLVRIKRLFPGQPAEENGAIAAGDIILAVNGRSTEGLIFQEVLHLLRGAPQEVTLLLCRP

Binder: SVTSERETNI [SLC16A7, O60669]
- pKd (FRMPD2_3, Q68DX3; [1]): below the threshold
- pKd (HTRA3, P83110; [1]): below the threshold
- pKd (DLG4_1, P78352; [1]): below the threshold
- pKd (PDZD2_2, O15018; [1]): 4.65
- pKd (TJP1_2, Q07157; [1]): below the threshold
- pKd (NHERF3_4, Q5T2W1; [1]): below the threshold
- pKd (RHPN1, Q8TCX5; [1]): 4.57
- pKd (FRMPD2_2, Q68DX3; [1]): below the threshold
- pKd (GRID2IP_1, A4D2P6; [1]): below the threshold
- pKd (GORASP1, Q9BQQ3; [1]): below the threshold
- pKd (LAP2, Q96RT1; [1]): below the threshold
- pKd (Inadl_8, Q8NI35; [1]): below the threshold
- pKd (MAGI3_2, Q5TCQ9; [1]): below the threshold
- pKd (GRIP1_7, Q9Y3R0; [1]): below the threshold
- pKd (CASK, O14936; [1]): below the threshold
- pKd (MAGI1_1, Q96QZ7; [1]): below the threshold
- pKd (FRMPD2_1, Q68DX3; [1]): below the threshold
- pKd (DLG3_2, Q92796; [1]): 4.25
- pKd (Inadl_5, Q8NI35; [1]): below the threshold
- pKd (GORASP2, Q9H8Y8; [1]): below the threshold
- pKd (NHERF3_3, Q5T2W1; [1]): below the threshold
- pKd (SCRIB_2, Q14160; [1]): 3.69
- pKd (SNTB1, Q13884; [1]): 5.38
- pKd (MAGI2_6, Q86UL8; [1]): 3.5
- pKd (MPDZ_5, O75970; [1]): below the threshold
- pKd (DLG3_1, Q92796; [1]): below the threshold
- pKd (LIN7A, O14910; [1]): below the threshold

Binder: LPAVCYDIDI [PTTG2, Q9NZH5]
- pKd (FRMPD2_3, Q68DX3; [1]): below the threshold
- pKd (HTRA3, P83110; [1]): 3.6
- pKd (DLG4_1, P78352; [1]): below the threshold
- pKd (PDZD2_2, O15018; [1]): 4.17
- pKd (TJP1_2, Q07157; [1]): 4.32
- pKd (NHERF3_4, Q5T2W1; [1]): below the threshold
- pKd (RHPN1, Q8TCX5; [1]): below the threshold
- pKd (FRMPD2_2, Q68DX3; [1]): below the threshold
- pKd (GRID2IP_1, A4D2P6; [1]): below the threshold
- pKd (GORASP1, Q9BQQ3; [1]): 3.89
- pKd (LAP2, Q96RT1; [1]): below the threshold
- pKd (Inadl_8, Q8NI35; [1]): below the threshold
- pKd (MAGI3_2, Q5TCQ9; [1]): below the threshold
- pKd (GRIP1_7, Q9Y3R0; [1]): below the threshold
- pKd (CASK, O14936; [1]): below the threshold
- pKd (MAGI1_1, Q96QZ7; [1]): below the threshold
- pKd (FRMPD2_1, Q68DX3; [1]): below the threshold
- pKd (DLG3_2, Q92796; [1]): 4.09
- pKd (Inadl_5, Q8NI35; [1]): below the threshold
- pKd (GORASP2, Q9H8Y8; [1]): 3.66
- pKd (NHERF3_3, Q5T2W1; [1]): below the threshold
- pKd (SCRIB_2, Q14160; [1]): below the threshold
- pKd (SNTB1, Q13884; [1]): below the threshold
- pKd (MAGI2_6, Q86UL8; [1]): below the threshold
- pKd (MPDZ_5, O75970; [1]): below the threshold
- pKd (DLG3_1, Q92796; [1]): below the threshold
- pKd (LIN7A, O14910; [1]): below the threshold

Now from value to binder:

- pKd (FRMPD2_3, Q68DX3; [1]): below the threshold
- pKd (HTRA3, P83110; [1]): below the threshold
- pKd (DLG4_1, P78352; [1]): below the threshold
- pKd (PDZD2_2, O15018; [1]): below the threshold
- pKd (TJP1_2, Q07157; [1]): below the threshold
- pKd (NHERF3_4, Q5T2W1; [1]): 3.7
- pKd (RHPN1, Q8TCX5; [1]): below the threshold
- pKd (FRMPD2_2, Q68DX3; [1]): below the threshold
- pKd (GRID2IP_1, A4D2P6; [1]): below the threshold
- pKd (GORASP1, Q9BQQ3; [1]): below the threshold
- pKd (LAP2, Q96RT1; [1]): below the threshold
- pKd (Inadl_8, Q8NI35; [1]): below the threshold
- pKd (MAGI3_2, Q5TCQ9; [1]): below the threshold
- pKd (GRIP1_7, Q9Y3R0; [1]): below the threshold
- pKd (CASK, O14936; [1]): below the threshold
- pKd (MAGI1_1, Q96QZ7; [1]): below the threshold
- pKd (FRMPD2_1, Q68DX3; [1]): below the threshold
- pKd (DLG3_2, Q92796; [1]): below the threshold
- pKd (Inadl_5, Q8NI35; [1]): below the threshold
- pKd (GORASP2, Q9H8Y8; [1]): below the threshold
- pKd (NHERF3_3, Q5T2W1; [1]): below the threshold
- pKd (SCRIB_2, Q14160; [1]): below the threshold
- pKd (SNTB1, Q13884; [1]): 3.51
- pKd (MAGI2_6, Q86UL8; [1]): 3.57
- pKd (MPDZ_5, O75970; [1]): below the threshold
- pKd (DLG3_1, Q92796; [1]): below the threshold
- pKd (LIN7A, O14910; [1]): below the threshold
Binder: GEDRSPPTAL [MKNK1, Q9BUB5]

- pKd (FRMPD2_3, Q68DX3; [2]): below the threshold
- pKd (HTRA3, P83110; [2]): below the threshold
- pKd (DLG4_1, P78352; [2]): below the threshold
- pKd (PDZD2_2, O15018; [2]): below the threshold
- pKd (TJP1_2, Q07157; [2]): below the threshold
- pKd (NHERF3_4, Q5T2W1; [2]): 3.57
- pKd (RHPN1, Q8TCX5; [2]): 4.38
- pKd (FRMPD2_2, Q68DX3; [2]): below the threshold
- pKd (GRID2IP_1, A4D2P6; [2]): below the threshold
- pKd (GORASP1, Q9BQQ3; [2]): below the threshold
- pKd (LAP2, Q96RT1; [2]): below the threshold
- pKd (Inadl_8, Q8NI35; [2]): below the threshold
- pKd (MAGI3_2, Q5TCQ9; [2]): below the threshold
- pKd (GRIP1_7, Q9Y3R0; [2]): below the threshold
- pKd (CASK, O14936; [2]): below the threshold
- pKd (MAGI1_1, Q96QZ7; [2]): below the threshold
- pKd (FRMPD2_1, Q68DX3; [2]): below the threshold
- pKd (DLG3_2, Q92796; [2]): 3.76
- pKd (Inadl_5, Q8NI35; [2]): below the threshold
- pKd (GORASP2, Q9H8Y8; [2]): below the threshold
- pKd (NHERF3_3, Q5T2W1; [2]): below the threshold
- pKd (SCRIB_2, Q14160; [2]): below the threshold
- pKd (SNTB1, Q13884; [2]): below the threshold
- pKd (MAGI2_6, Q86UL8; [2]): below the threshold
- pKd (MPDZ_5, O75970; [2]): below the threshold
- pKd (DLG3_1, Q92796; [2]): below the threshold
- pKd (LIN7A, O14910; [2]): below the threshold
Binder: QNTDDVQTSF [ACE2, Q9BYF1]
